Test results: article doi:10.1101/2020.12.17.423260

Molecular target: 3Dpol-WT (RNA-dependent RNA polymerase) (Foot-and-mouth disease virus, UniProt P03305 1863-2332)
Experiment: fluorescence polarisation anisotropy

3Dpol-WT (RNA-dependent RNA polymerase), sequence (P03305 1863-2332): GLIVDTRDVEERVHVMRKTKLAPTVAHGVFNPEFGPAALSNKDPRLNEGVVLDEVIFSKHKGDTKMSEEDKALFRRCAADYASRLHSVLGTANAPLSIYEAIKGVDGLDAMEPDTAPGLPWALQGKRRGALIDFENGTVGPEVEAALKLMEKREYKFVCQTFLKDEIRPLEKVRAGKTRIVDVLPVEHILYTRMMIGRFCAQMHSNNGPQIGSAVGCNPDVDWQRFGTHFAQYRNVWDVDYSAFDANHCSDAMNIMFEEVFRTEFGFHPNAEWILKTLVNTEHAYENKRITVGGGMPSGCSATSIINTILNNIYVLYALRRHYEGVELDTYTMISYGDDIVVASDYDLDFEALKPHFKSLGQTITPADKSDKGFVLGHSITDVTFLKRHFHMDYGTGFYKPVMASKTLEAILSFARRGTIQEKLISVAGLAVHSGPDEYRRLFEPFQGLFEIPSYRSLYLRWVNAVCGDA

Question: For AAAAAAAAAAAAA (ssRNA) [13mer poly-A RNA], which Kd is on record?
Answer: 5.83 ± 1.3 µM
